Results from the domain aggregation screens of Martell et al. (2025).

Test: soluble fraction after stress (log2 fold change); higher = more stays soluble; pooled small domains, quantitative proteomics
Details: stress: 75 degC
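Note: 20 min heating vs room temperature control held 20 min.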

Sequence: HMENYGEAITYIHGMIEDSSEKMLAASKALKVNANTLIKFMKDPYSVAAHIRDRIVENLANLEKAVKAI
- soluble fraction (log2): -0.254

Sequence: HMDDLATAYKAMGVDASISDKDLKRAYRKLMSQHHPDKMIAKGVPADMVAMATEKTQEIQAAYDLIERSR
- soluble fraction (log2): 0.203

Sequence: HMAKRQATIVYEGTNVRSGPSTSSAIVKRTGKGESYPIVSTKGDWYEIKLSNGDSAYVASWVVQTVD
- soluble fraction (log2): -0.728

Sequence: HMYHKKEKAQAANIEERIMILLSDGKHHHITEIKAIYVDEVITLNILEEMLAEEKVIIEGDMIMLVE
- soluble fraction (log2): -3.64

Sequence: HMTGIELLSHREHQVYDLLTQGRTVTEIGAQLNLAPNTVSTYRARILEKTGTKNDVELALYAQRH
- soluble fraction (log2): -0.22

Sequence: HMGGLAEIILNAIEIEGGFLPITDKSAPELIQSRLGMSKKAFKEAVGTLYKNRDIAIEPNGLRKI
- soluble fraction (log2): -0.452

Sequence: HMHMSKKLADSIISLRRKHGFSQEQLAEKIGVTRQAISNWERGTATPDVETLNLIAKLFDMDLLAIINGE
- soluble fraction (log2): 0.0813

Sequence: HMDYQEVEFEKLGKEILTKILLDINKKATKKTLKILIDGFNYDSYRSFYIAIGKAQISSDSILELLQH
- soluble fraction (log2): -0.994

Sequence: HMKRDRLYGITIYLLNHGRTSAKTLAEYFEVSVRTIQRDMDALSMAKIPIIAYPGSDGGYEIQEGYRL
- soluble fraction (log2): -3.03

Sequence: HMRSDSEIKEDVLDELMWQPNIDETQIGVIVEKGVVTLTGFVDAYAKKTAALDAVKNVKGVKAVANDIEV
- soluble fraction (log2): 0.131

Sequence: HMANKLSEQIYGSILKDIVNGVYAPREFISEAQIAAKYGVSKAPVKEAMHILASEGFLLSYPKRGYMVN
- soluble fraction (log2): -0.889

Sequence: HMDTNRIIGNKIYQLRRSINMTQQELAEKVGISVTFLSEIENGRKSMSVDTLIKLSKGLQVSLDTIVF
- soluble fraction (log2): -4.31

Sequence: HMHSDSEIEKGYTDDGQKLSNVNGVYMTKSEMYNKGIVEKDPNTGEEVMGRNRVNPVTGELE
- soluble fraction (log2): 0.442

Sequence: HMRTVPEALLGRAYETAETAIVLEGLEAKRTDVFHPTIGNGTVIRLEPASGSQVSAGGVIEIFVSKGTETI
- soluble fraction (log2): -0.346

Sequence: HMKTGTVQDFIAKYGMSSKSPSSWFNSLTQIQKAEAKALKAQSGLTWNEWYEKNIYNGDGSNL
- soluble fraction (log2): -0.0584

Sequence: HMEEFAGYINGQPYYGPTHQHRGVKMVGAEHTQRPHPLVWDSVAKSLDNYDNRFQWVNGNLLQVV
- soluble fraction (log2): -0.0201

Sequence: HMEVTYQETLRVLYNAIDKLPPQTKEIILIGLDGKDNNEIAATLNISVNTVKTLKKNAYKTLRELLVD
- soluble fraction (log2): 0.0283

Sequence: HMSLTTKSVEETLGITRQTLHNWIKEGLLPAPKKDFRNWYIWSDEDLENLRNIIEQKTLINNKKQAV
- soluble fraction (log2): 0.203

Sequence: HMTLVKRSAMVTAWSEFAGGRVNSKLIALQNGKAGDWIELENPQSGRKLRGRVQSDGSVRLGS
- soluble fraction (log2): -1.07

Sequence: HMTIAEGLIFRFTEPFKPIDQYTYYIMGDNKVEQIPNFKTLEVMLAQRNQNYLSVRVIEKSQLDDILKEF
- soluble fraction (log2): -4.16

Sequence: HMTATIEEVNELTQSARVNINVPYAAKDEAKAYGAKWDDVERTWYTTGENYAQNKDFFDGFNPTAS
- soluble fraction (log2): 0.583

Sequence: HMVGIVQKTFEPTGIAAEELMKTLKSDKSLDFGNVQILATPKSSTSRQVVVVSGRANDVDRVMMVLSNLDS
- soluble fraction (log2): -0.326

Sequence: HMQQNDMTELRALAEKIISENDSVINDYKSGQGSALQFLIGQAMKETKGSANPQVISEIFTDLL
- soluble fraction (log2): -0.354

Sequence: HMSYGDLTGRTVVITGASKGIGARASRVLAQAGASVVGLARSVDELTALKYDLENDGLSFDFG
- soluble fraction (log2): ≥ 1.04

Sequence: HMGEENLKYPLLTDGSVKTTVLEAIDKDEKWLREELAKQGYDDLSKLFLVDYLGGQLVVTPY
- soluble fraction (log2): 0.144

Sequence: HMPSTVRVPDVAETSLSEAKKTIEESGLEVGAIHKVNNDTVKKNHVIKTSPTIGSAKKEGSAIDIYVSKG
- soluble fraction (log2): -0.0483

Sequence: HMEQGDTQQEIREKILNLLADGERHMITELKNIRTDQPIDDDKIVGKTLKTLLDEEEVYMDGSYIQLNG
- soluble fraction (log2): 0.653

Sequence: HMRLTIAQLSEKTGVPERTIRYYIDRGLVPSAHGERRGAWYDTVHLEPLLRIQQWREAGLSLEAIADLLR
- soluble fraction (log2): -1.72

Sequence: HMLSSNEIKEIFALFDKSNRGQVATSELGTLVRALNLNPTETEITDMQSKVDPKGQGSFTLDVLEKVVQD
- soluble fraction (log2): 0.394

Sequence: HMSSKRDQFIVLGQEILEKMFKNEGLEFSEKGLLAVMPNFEAESINDIYAKVGEGLISGWDVMKAVYPAY
- soluble fraction (log2): -0.311

Sequence: HMTVKKLIINEDNSGRRIDNYLLSIFNSVPRSKIYNIIRKGEVRVNSSRIKPSYRLEEGDQVRIPPNLDYT
- soluble fraction (log2): -1.05

Sequence: HMEKVDAISQSILDVLKKNNGYLAVTDKSDPDEIYGLFQISKKTFKKAIGSLYRDRLISIEEEGIRLR
- soluble fraction (log2): -0.496

Sequence: HMERYSVQVGSFRNMRYAERLKQELQGEDFPAYIEKSGEFNRVRVGKGLTLEEATQLEQVLRKSGYQTVIV
- soluble fraction (log2): -0.705

Sequence: HMADLKRLNEQIHYLGQYLSTKATYKEFLQANNKKIYRSEHQDEIAKYEEAAQFLKRSSPDGTIPTMKDLR
- soluble fraction (log2): -0.27

Sequence: HMEEDDGVDFHERLTELNDEQVYYLINTEPAKVIALALDQLGQKRKINIMNRFNPDMKHSIIMELGKL
- soluble fraction (log2): -0.543

Sequence: HMNNDSQYLATLQRYYAEHRVLPSYARMLPLLGFASKAAVKKVLERLEVVGMLERTEDGDWAPSERFFER
- soluble fraction (log2): -2.24

Sequence: HMSTDIPFNIFSQKWNADEIDSIVVENNKIEGKTKDNKKFSTYAPDELLTSLMENHKNPNVIVEFRAP
- soluble fraction (log2): 0.576

Sequence: HMGEAYVVPNVKNKTLGEAQLALHNQKLEGLVVDSSYVKGLPDGMILDQNPAGGARVKEGRTIYLTITTS
- soluble fraction (log2): -0.0978

Sequence: HMFQPEQISKLNELETLVLDFIIKSPDKVQKATIRSLATQLHVSTTTIVRMSTKLGFNGWSELKFFLKNQS
- soluble fraction (log2): -1.93

Sequence: HMQLTDLSALEAIIKEVLAANPKSVEDYKSGKEKAFGSLVGQAMKATKGKANPETVNSLLRKNLN
- soluble fraction (log2): 0.729

Sequence: HMSSLREQVADALRAHLVSGRMRPGVLYSAPKLAAEFGVSATPVREAMLDLVSEGLVDVVRNKGFRVT
- soluble fraction (log2): -0.597

Sequence: HMQEQSSYVGQFGTAATTLRPSGTVELEDGTRIDVVTVGEFIEKGEPVQVVRKDGTWLVVEKRRSK
- soluble fraction (log2): 0.976

Sequence: HMLKLPVEYLNLKYQLMHATSLDKPNNLMKLDEKLGKIIDVYYDDLPVDEQRVVDILQSKLYSY
- soluble fraction (log2): -0.489

Sequence: HMVEQVEISILPGEYSDTISQKLLDAGLIDDKAAFSKYINDTNVDNLIQPGTFTVPKGASYEEVAKILT
- soluble fraction (log2): 0.214

Sequence: HMTFPTEAKLTGDKVFVRSGPSTQSQRLTNLAINSVVTVLAREMGDMQYPWYKVRYSDGEGWVYGQYVEAI
- soluble fraction (log2): -1.08

Sequence: HMKTQFGTIVKQLRERKGMDQKQLGEIVGVSDKTVSSWEINRTEPKMGIVQQLADYFGVSTDYLIKG
- soluble fraction (log2): 0.306

Sequence: HMNKYQFESKIHIYRATKRMTQQELADLVGVSRQTIMQLERNRYNPSMMLAYGIAKVFDVTIEDLFDFSEV
- soluble fraction (log2): -3.18

Sequence: HMSDTFTITTESGRIDKIITAHETTHTRSQVQKWLQDGLVTVNGNPVKANFKVTAGDVVTVTIPEVK
- soluble fraction (log2): 0.0601

Sequence: HMRGGLATLTPRERQVLALMAEGRSNAGIAAELVVSGGAVEKHVASIFTKLGLPPDESDNRRVLAVLRHLG
- soluble fraction (log2): -1.74

Sequence: HMQKFLEATGENRDAAVENALEQLGLERDDVSVEVLEIGKKGFLGIGATPARVRVTYEAPDI
- soluble fraction (log2): 0.197

Sequence: HMSSDLVDYLVKYVAIVDNQEIEIADSKIGTAELGTTVSEVAKTVGNYYPKATVLSVKITGRNQEIVFEY
- soluble fraction (log2): -2.91

Sequence: HMDFFTAAPEEDEIGKRIDVYIAEYKEELSRSRVQKLIENGLVTVNGKAVKSNYKLRKGDILEVEIPDPE
- soluble fraction (log2): -0.0998

Sequence: HMLPSWLPTDAWEAFLEARVAMKARPTERAKGLLLGELSKLVSQGQDARAVLEQSVQRGWRGLFPVK
- soluble fraction (log2): -1.76

Sequence: HMVDERMVTYINSLDKGNTPFLNELEKEALANYVPIIRREMQSFLKVLLQIKAPLRILEVGTAVGFSTILM
- soluble fraction (log2): 0.0501

Sequence: HMVKLSDGIVEHIKSLIMAGRLKPGDKLPPEREFAATLGVSRTALREAVRTLSLMGLLDARQGEGTFVSG
- soluble fraction (log2): -0.135

Sequence: HMTKSEWLRESREHLGLSQTDLRNLLNTALNRSYDKSRISRWENSKENIPAEVVKQIESLIATR
- soluble fraction (log2): -0.0559

Sequence: HMSYQSYDKVVGDTFFEANLKAESKFGKGNFEIISTRRVKHPIYLGFGHKELVELTIGIHDP
- soluble fraction (log2): -1.33

Sequence: HMGTHPGIDSGIISDILALKKELPTRSAAKIITMLTLAGKMEENSIHVKTVNRILYQYGYTRDTLS
- soluble fraction (log2): -1.92

Sequence: HMDASSAVQFGSLLRDARRRQGLSQAELGGDKYSGSYISHLESGRRVATPEVIEFLSRRLGVSPLEWGVS
- soluble fraction (log2): -0.0146

Sequence: HMPSEDELAERLRGAIRQGDILNEGRMPPERALAEHFGVSRARLRLALGLLQEDGTIYRRHGQGTFAT
- soluble fraction (log2): -0.308

Sequence: HMQEVKVRLKPDYLGEVLIKVISDKGELKAELFVSNSQVRSLLRAYAVEFQNQIRDQGYNFSEINVYR
- soluble fraction (log2): -0.738

Sequence: HMYAVQKGDTLKKIADQFGISVDTIKWANDMKGDALSIDQELKIP
- soluble fraction (log2): 0.414

Sequence: HMRDLTARQQQILALIRQHIADTGFPPTRAEIAAQLGFRSPNAAEEHLKALARKGVIELASGASRGIRLK
- soluble fraction (log2): -0.86

Sequence: HMAESSLPKMPRDESKYIYHSVQPGETVYSLSKRYSVSESDIVKSNPGIDITKLSLGLEVAIPRI
- soluble fraction (log2): 0.691

Sequence: HMLVGKSVIMKTNESSSGMIAGKVNYWENIDGKIYLGINGKLYDIADVDTVLDNDYYDKLVN
- soluble fraction (log2): -0.516

Sequence: HMTSHSFVITEEVGQRLDRFISDQLDTVSRTMIQKHIRSGAVVVNGKQVKSNYLLVLNDRINIALK
- soluble fraction (log2): -2.75

Sequence: HMTSISMDEKVVLGWHQVTTGAANSGMDKVVSNTSGLNVISPTWFKLSDNKGNYISIASKDYVDAAHKKGL
- soluble fraction (log2): -0.108

Sequence: HMRTQEELVAEVREQMEAMGTIATLYVELYESSEERLVGGVIFEDERHYRFVYEDGLLHYEEEK
- soluble fraction (log2): -0.527

Sequence: HMSTPAKVTPTNPIVKQLFNAAETQIKNKDIQNAIASYEKADTLTTDEKVKQYIHYQLSTLKDDN
- soluble fraction (log2): -0.0812

Sequence: HMVSNRMVYSDFQQKWINNQVESINVNADKMTIEVTTQDEKKYTVYAPSSMIEFLNEQYPKDDIKIEYVAP
- soluble fraction (log2): 0.153

Sequence: HMTDIVPNLIGKSLKDAIQSVEKSNLKAIFDGHGIVVSQQPRPGSPIPARKIMKVTLSPDYR
- soluble fraction (log2): -0.13

Sequence: HMIKLSEAEWKVMKLLWEESPKTMMQITNLLKETTGWTKHTVMTFLKRMEEKKAIHYEEGGRAKLYYP
- soluble fraction (log2): -0.863

Sequence: HMPDDHFIRGYVTAVLEQVLKVPSIQVEVERGVVILRGDLPGEERQELLDAVSRIHGVARVEYIPL
- soluble fraction (log2): -0.686

Sequence: HMEQISVPIFTNDELVTFARSYSGELGYKIDDMAVLALYNRISNIQRLDQATTLTEVKDIVDEAVAKSE
- soluble fraction (log2): 0.096

Sequence: HMRNMRKLWIARINAAARMNDISYSKLMHGLKLANVEINRKMLSEMAIDDPKSFTALVETAKKALNG
- soluble fraction (log2): -1.49

Sequence: HMKQLVVVPRVVSLSEGKAREDVGDRGLVVDRVEMDTLRTPYENTVTRQEPAADSRVPVGTRVTLWISPGV
- soluble fraction (log2): 0.567

Sequence: HMPSTKDGIKEFLSSGAMKGIGRKTASAIVSRFGIDTLKIIEQEPQRLTEVSGIGKKTAQRIAEAFGKH
- soluble fraction (log2): -0.26
